Assay results reported in patent publication US10428327B2, “Compositions and methods for enhancing homologous recombination” (LIFE TECHNOLOGIES CORPORATION, priority 2016, dated 2019).
Oligonucleotides are written 5' to 3', each unit as a sugar letter and its base; * is a phosphorothioate linkage, no mark a phosphodiester; rarer units and linkages stand in square brackets, end groups in braces. Plain capitals give the bases only. d = 2'-deoxy (DNA)

What was measured:
[1] = test system: rabbit embryos; conditions: in vitro and in vivo; cited from earlier work
[2] = test system: HEK293T cells; conditions: synchronization at M phase prior to nucleofection; cited from earlier work
[3] = test system: hESCs; conditions: synchronization at M phase prior to nucleofection; cited from earlier work
[4] = molecular target: T1, DNA ligase IV (Homo sapiens, UniProt P49917); conditions: cited from earlier work
T1 sequence (P49917 1-911): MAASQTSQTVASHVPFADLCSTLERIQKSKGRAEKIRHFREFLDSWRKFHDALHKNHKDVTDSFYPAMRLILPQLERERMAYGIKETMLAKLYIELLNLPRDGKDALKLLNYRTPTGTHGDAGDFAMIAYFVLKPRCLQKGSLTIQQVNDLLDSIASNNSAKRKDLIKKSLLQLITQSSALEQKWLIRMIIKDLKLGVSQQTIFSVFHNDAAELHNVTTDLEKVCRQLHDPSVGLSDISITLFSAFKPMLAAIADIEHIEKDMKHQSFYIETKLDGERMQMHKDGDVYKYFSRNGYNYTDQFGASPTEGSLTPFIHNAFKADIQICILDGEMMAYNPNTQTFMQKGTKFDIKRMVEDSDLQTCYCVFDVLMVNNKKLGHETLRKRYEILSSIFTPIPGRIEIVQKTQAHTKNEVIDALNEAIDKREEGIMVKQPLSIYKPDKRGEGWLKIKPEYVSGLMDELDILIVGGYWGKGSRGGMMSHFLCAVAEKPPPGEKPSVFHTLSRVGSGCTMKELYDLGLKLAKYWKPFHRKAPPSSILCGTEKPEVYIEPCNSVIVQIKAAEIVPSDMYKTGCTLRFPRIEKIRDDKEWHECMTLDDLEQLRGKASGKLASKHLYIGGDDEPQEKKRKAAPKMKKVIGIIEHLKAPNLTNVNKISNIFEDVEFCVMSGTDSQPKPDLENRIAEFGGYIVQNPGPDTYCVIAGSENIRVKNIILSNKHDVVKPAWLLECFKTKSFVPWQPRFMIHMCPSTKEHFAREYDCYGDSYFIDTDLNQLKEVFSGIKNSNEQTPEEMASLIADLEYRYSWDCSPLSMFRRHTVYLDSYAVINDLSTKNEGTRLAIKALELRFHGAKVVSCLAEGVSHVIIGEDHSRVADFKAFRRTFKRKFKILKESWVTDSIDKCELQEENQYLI

[5] = test system: eBFP locus in HEK293 cells expressing eBFP; test: Genomic cleavage and detection assay at eBFP locus after Cas9 RNP and FLAG/EcoRI donor; assay type: cell-based; conditions: sequential delivery, 48 hours post transfection
From the text: FIG. 11. Insertion of a FLAG tag along with an EcoRI site using dsDNA donor with single-stranded overhangs. (A) Various donor DNA molecules containing a 30-base FLAG tag along with an EcoRI site were designed and synthesized, including single-stranded DNA donor (ssDNA), blunt-end dsDNA donor (blunt), dsDNA donor with 5′ overhang (5′), dsDNA donor with 3′ overhang (3′). The length of overhangs varied from 6 nucleotides (6), 15 nucleotides (15) to 30 nucleotides (30). The 3′ and 5′ ends of the oligonucleotides harbored two consecutive phosphorothioate-modified bases (Table 4). The short dsDNA donors with and without overhangs were prepared by annealing two short DNA oligonucleotides. […] At 48 hours post transfection, the eBFP locus was PCR-amplified. The resulting PCR fragments were analyzed by the genomic cleavage and detection assays to determine the percentage of Indel or subjected to restriction digestion with EcoRI to determine the percentage of digestion. (B) Length of 3′ overhang. […] Alternatively, a dsDNA donor with 30-base 3′ overhang but without phosphorothioate modification (30-3′n) was used. The percentage of digestion with EcoRI was determined at 48 hours post transfection. (C) Dose effect. […] The eBFP loci were PCR-amplified. The resulting PCR fragments were analyzed by EcoRI digest. (D) Sequencing verification. The PCR fragments were cloned into E. coli and 192 clones were randomly picked for sequencing. The relative percentage of wild type (wt), NHEJ, and HDR clones derived from either ssDNA donor (ssDNA) or dsDNA with 3′ overhangs (3′ overhang) was plotted. The white rectangles represented the population of clones that contained the insert but with a point mutation. Examples of edited clones were shown in (E) (not representing the actual percentages of NHEJ and HDR). The underlined sequences represented the FLAG tag along with an RI site. FIG. 11 discloses SEQ ID NOs: 15-24, respectively, from top to bottom.
The genomic cleavage efficiency was measured by GENEART® Genomic Cleavage Detection kit according to manufacturer's instructions. The primer sequences for PCR amplification of each genomic locus are described in Table 4. Cells were analyzed at 48 to 72 hours post transfection. The cleavage efficiencies were calculated based on the relative agarose gel band intensity, which were quantified using an […]® gel documentation system running […]®, Version 3.4.0.0. ProteinSimple (San Jose, Calif., USA).
To extend this concept, we hypothesized that a dsDNA donor harboring single-stranded overhangs would facilitate HDR to higher levels than with blunt ends. To test this hypothesis, we designed and generated a series of donor molecules with either blunt end, 5′ end protrusion or 3′ end protrusion by annealing two small single-stranded oligonucleotides. A single-stranded DNA donor was used as a control. The 5′ and 3′ ends of oligonucleotides were protected with two consecutive phosphorothioate-modified bases (Table 3). For proof of concept, we inserted a 30 nucleotide FLAG epitope tag along with an EcoRI site into the BFP gene stably expressed in HEK293 cells. The gRNA was designed to target the top DNA strand. The length of single-stranded overhangs varied from 6 nucleotides to 30 nucleotides. The oligonucleotides were denatured and re-annealed prior to transfection forming the structures described in FIG. 11A. […] Co-delivery of Cas9 RNPs and donor DNA gave lower HDR efficiencies. At 48 hours post transfection, the genomic locus was PCR-amplified and the editing efficiencies were determined using a GCD assay. […] When the PCR fragments were subjected to restriction digestion with EcoRI to identify properly inserted constructs, only the donor DNA molecules containing 30-base single-stranded overhangs at the 3′ ends produced the expected digested fragments (30-3′ in FIG. 11, panel A). […]

[6] = test system: eBFP locus in HEK293 cells expressing eBFP; test: EcoRI restriction digestion of PCR-amplified eBFP locus (FLAG tag/EcoRI insertion); assay type: cell-based; conditions: 48 hours
[7] = FIG. 11A, donor configurations, sequential delivery

O=C(Nc1ccc(Br)cc1)c1ccc(Br)c(S(=O)(=O)NCc2ccccc2)c1 [RS-1]
increased knock-in efficiency [1]: 2-5 fold

COC(=O)Nc1nc2ccc(C(=O)c3cccs3)cc2[nH]1 [nocodazole]
HDR [2]: up to 38% | HDR [3]: ≤ 1.6%

Scr7
increase in HDR efficiency [4]: up to 19 fold

B1: 15-3′: dsDNA donor with 15 nucleotide 3′ overhangs, annealed SEQ ID 83 and 84 (nucleic acid)
chain 1: dG*dA*dCdTdAdCdAdAdAdGdAdCdGdAdTdGdAdCdGdAdCdAdAdGdAdAdTdTdCdTdTdAdCdGdGdCdGdTdGdCdAdGdT*dG*dC
chain 2: dA*dA*dGdAdAdTdTdCdTdTdGdTdCdGdTdCdAdTdCdGdTdCdTdTdTdGdTdAdGdTdCdGdGdTdCdAdGdGdGdTdGdGdTdC*dA*dC
modifications: further chemistry not fully specified
Avg (% Indels) [5]: 81.00% | Avg (% digestion) [6, 7]: 0.50% | Avg (% digestion) ([6]; FIG. 11B, length of 3′ overhang): 0.8%

B2: 30-5′: dsDNA donor with 30 nucleotide 5′ overhangs, annealed SEQ ID 85 and 86 (nucleic acid)
chain 1: dG*dT*dGdCdCdCdTdGdGdCdCdCdAdCdCdCdTdCdGdTdGdAdCdCdAdCdCdCdTdGdAdCdCdGdAdCdTdAdCdAdAdAdGdAdCdGdAdTdGdAdCdGdAdCdAdAdGdAdAdTdTdC*dT*dT
chain 2: dG*dT*dGdGdTdCdGdGdGdGdTdAdGdCdGdGdCdTdGdAdAdGdCdAdCdTdGdCdAdCdGdCdCdGdTdAdAdGdAdAdTdTdCdTdTdGdTdCdGdTdCdAdTdCdGdTdCdTdTdTdGdTdAdG*dT*dC
modifications: Two annealed DNA oligonucleotides with 5' overhangs, further chemistry not fully specified
Avg (% Indels) [5]: 80.00% | Avg (% digestion) [6, 7]: 1.00%
